Numbering of substitutions follows the chain as printed. Names may count otherwise.

The labels stand for the following.
T1: MukB^KRK (K1114E, R1122E and K1125E) (Escherichia coli, UniProt P22523 1-1486, K1114E | R1122E | K1125E)
T1 construct: E. coli MukB, triple charge-reversed mutant; source: E. coli FL01 (mukB 3xFLAG C3013I), purified (TALON, HiTrap Heparin, Superdex 200); not shown: His tag, C-terminal, kept
T1 sequence (looked up): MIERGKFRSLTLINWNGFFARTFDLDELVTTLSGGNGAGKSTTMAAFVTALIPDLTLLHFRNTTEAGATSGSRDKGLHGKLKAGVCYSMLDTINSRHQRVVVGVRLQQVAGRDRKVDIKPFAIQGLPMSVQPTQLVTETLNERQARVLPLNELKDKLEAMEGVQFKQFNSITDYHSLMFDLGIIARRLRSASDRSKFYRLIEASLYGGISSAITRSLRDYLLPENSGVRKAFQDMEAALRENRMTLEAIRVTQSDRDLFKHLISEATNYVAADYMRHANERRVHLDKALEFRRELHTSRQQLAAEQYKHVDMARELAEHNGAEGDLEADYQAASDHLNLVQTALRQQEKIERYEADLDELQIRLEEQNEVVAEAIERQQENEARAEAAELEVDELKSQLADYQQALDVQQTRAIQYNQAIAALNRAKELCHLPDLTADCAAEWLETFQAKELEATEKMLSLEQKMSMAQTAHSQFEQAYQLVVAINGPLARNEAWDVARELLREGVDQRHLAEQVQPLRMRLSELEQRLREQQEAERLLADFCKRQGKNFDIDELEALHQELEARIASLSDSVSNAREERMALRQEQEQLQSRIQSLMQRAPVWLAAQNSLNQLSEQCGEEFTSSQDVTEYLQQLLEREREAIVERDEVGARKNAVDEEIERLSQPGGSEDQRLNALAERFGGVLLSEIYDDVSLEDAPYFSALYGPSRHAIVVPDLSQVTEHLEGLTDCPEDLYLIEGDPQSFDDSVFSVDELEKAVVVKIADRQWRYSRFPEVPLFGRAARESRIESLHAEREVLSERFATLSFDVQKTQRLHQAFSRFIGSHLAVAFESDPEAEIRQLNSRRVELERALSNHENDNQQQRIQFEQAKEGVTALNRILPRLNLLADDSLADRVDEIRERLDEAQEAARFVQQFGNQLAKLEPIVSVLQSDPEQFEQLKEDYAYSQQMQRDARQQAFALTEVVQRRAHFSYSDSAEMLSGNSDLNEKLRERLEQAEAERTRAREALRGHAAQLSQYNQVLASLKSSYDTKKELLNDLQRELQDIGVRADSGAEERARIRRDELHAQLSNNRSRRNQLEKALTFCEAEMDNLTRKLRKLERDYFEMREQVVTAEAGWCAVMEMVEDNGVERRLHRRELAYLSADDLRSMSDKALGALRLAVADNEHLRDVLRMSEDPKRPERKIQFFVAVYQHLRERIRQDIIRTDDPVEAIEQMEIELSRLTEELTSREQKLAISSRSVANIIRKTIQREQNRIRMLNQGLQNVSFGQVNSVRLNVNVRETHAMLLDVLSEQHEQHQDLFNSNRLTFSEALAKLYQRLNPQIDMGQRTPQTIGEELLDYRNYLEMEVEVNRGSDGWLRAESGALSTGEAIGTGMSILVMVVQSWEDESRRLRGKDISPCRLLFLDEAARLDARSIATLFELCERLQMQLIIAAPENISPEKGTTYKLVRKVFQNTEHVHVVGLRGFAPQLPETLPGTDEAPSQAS

B1: MukB (wild type, MukB-His) (natural protein, Escherichia coli, UniProt P22523 1-1486, looked up)
chain: T1 sequence (looked up) with E1114K, E1122R, E1125K
notes: MukB, the SMC protein of Escherichia coli MukBEF; wild type; The end of the tag is read from the printed name 'MukB-His'; The same construct was used with co-purified AcpP or depleted of AcpP by an extended salt gradient on heparin; also called WT MukB; AcpP-depleted MukB; source: E. coli C3013I (NEB), pET vector, purified (TALON, HiTrap Heparin, Superdex 200); not shown: His tag, C-terminal, kept

For data set [1], the target named is MukB (wild type, MukB-His) (Escherichia coli) (UniProt P22523).
In data set [2] the target is MukB^N (MukB Neck) (Escherichia coli). As to the kind of experiment: native MS; MukB^N or MukB^HN with co-purified AcpP; 200 mM ammonium acetate pH 8.0.
Data set [3] deals with MukB^HN (MukB Head-Neck) (Escherichia coli). The data set is described as above.
Data set [4] concerns the target MukB^KK (K1114E and K1125E) (Escherichia coli) (UniProt P22523).
Data set [5] concerns the target T1, MukB^KRK (K1114E, R1122E and K1125E).
The target in data set [6] is B1.
Data set [7] deals with the molecule itself. As to the kind of experiment: native MS; mixtures of MukB, MukE, MukF and AcpP at various concentrations of MukB; 200 mM ammonium acetate pH 8.0.

A word on the stoichiometry N: it is the number of molecules, sites or subunits per partner or assembly. In turn, “Acyl Carrier Protein (AcpP), native, co-purified from the E. coli host (from UniProt P0A6A8 1-78) (natural protein)” yielded an ATPase activity of MukBF co-purified with AcpP (ATP molecules/MukB2/min) in data set [1] of 27.2. For the same molecule, the stoichiometry N in data set [2] and in data set [3] was 1 each time.

Consider “Acyl Carrier Protein (AcpP), recombinant (from UniProt P0A6A8 1-78) (natural protein)”, for which the ATPase activity with MukEF against increasing AcpP (up to 50 μM) (% of WT ATPase activity) in data set [4] came out at 60. In data set [5], this molecule displayed an ATPase activity with MukEF against increasing AcpP (up to 100 times excess, 50 μM) (ATP molecules/MukB2/min) of 7.6. Further, the ATPase activity of AcpP-depleted MukB with MukF, without and with added recombinant AcpP (ATP molecules/MukB2/min) in data set [6] was 29.

The molecule MukB^N (MukB Neck) (domain or fragment) registered a stoichiometry N in data set [2] of 2.

On to B1, for which the binding result in data set [7] was “binds”.

These data come from publication PMC8602292, “Acyl carrier protein promotes MukBEF action in Escherichia coli chromosome organization-segregation” (Nature Communications, 2021).
